The numbers were not newly measured in PMC6275225, which cites them from elsewhere.

The series concerns the target LFA-3 (Homo sapiens) (UniProt P19256).
UniProt P19256, sequence (P19256 29-215): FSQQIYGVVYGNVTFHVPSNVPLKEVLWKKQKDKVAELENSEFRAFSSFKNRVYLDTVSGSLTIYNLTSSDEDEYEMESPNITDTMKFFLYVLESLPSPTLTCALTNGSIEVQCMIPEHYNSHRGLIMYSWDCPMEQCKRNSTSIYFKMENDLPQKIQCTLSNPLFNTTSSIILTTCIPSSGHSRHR

For the substance CD2 (from UniProt P06729), the Kd was 15 µM.
